± gives the standard deviation of the averaged measurements.
System: ATP
Assay: switch fluorescence ratio, 500 uM ATP over buffer (Cy3 cluster intensity, sum of 5 cycles each) (fold (ratio)); higher = stronger signal-on switching upon ATP binding; sequences stand for … in TCGTCGGCAGCGTCAGATGTGTATAAGAGACAGTTTTTTTTTTTTTTTTTTTTTTTTT…TC
Details: aptamer strand: ATP DNA aptamer (quencher-CACCTGGGGGAGTATTGCGGAGGAAGG + anchor), 100 nM annealed; ATP concentration: 500 uM
Procedure, shortened: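 Values give the fluorescence ratio for each switch-domain sequence, averaged from per-cluster ratios of summed target-cycle to summed buffer-cycle Cy3 intensity. The Cy3-labelled switching-strand clusters sat on a modified Illumina MiSeq flow-cell, were annealed to 100 nM quencher-labelled ATP aptamer, and were imaged in selection buffer, then after 15 min with 500 uM ATP at 22 °C. Five cycles ran with NaOH stripping and re-annealing between them, and clusters outside 100-1000 RFU were excluded.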
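Note: ATP exposure 15 min at 22 °C before imaging.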

Row | Sequence | switch fluorescence ratio
1 | GGGAGTAAAT | 1.01 ± 0.037
2 | GCGTTGAGGG | 0.952 ± 0.079
3 | TTTTTTTCGC | 1.01 ± 0.032
4 | AATTCTGAGG | 0.977 ± 0.025
5 | GGGTTAAAGT | 0.994 ± 0.022
6 | GTGGAAAGAT | 1.01 ± 0.018
7 | CGGTATCTAT | 0.96436 ± 0.00057
8 | GAACATTGAG | 1.019 ± 0.0034
9 | GCGTCTTCAT | 0.979 ± 0.011
10 | AATGCCTTTG | 1.02 ± 0.035
11 | CAAAGAGGAT | 0.991 ± 0.022
12 | ATCTGGTAAT | 1.005 ± 0.0031
13 | TGATTTCTTT | 0.997 ± 0.0018
14 | TATTGGCAGA | 1.008 ± 0.01
15 | GTGGTTTGGT | 0.979 ± 0.035
16 | GGTTTTTCCG | 1.03 ± 0.033
17 | TAGAGGCGGG | 0.981 ± 0.025
18 | ATTTACGTCT | 1.04 ± 0.056
19 | TTGGGGGCAG | 1.01 ± 0.018
20 | TTGGGGCAGG | 1.1 ± 0.07
21 | TTAATTTAAG | 0.992 ± 0.038
22 | TCGGGGGATG | 0.987 ± 0.019
23 | CCATGTGTTG | 1.03 ± 0.043
24 | ACTGAAGGGG | 1.02 ± 0.059
25 | TGTCGGATTT | 1.13 ± 0.24

Row | Sequence | switch fluorescence ratio
26 | TTGATTTTTT | 0.996 ± 0.029
27 | CGGTCGGGTC | 1.01 ± 0.028
28 | CAGAGGGC | 1.04 ± 0.04
29 | AGAGGGGGAA | 0.978 ± 0.014
30 | GATGTTGGGA | 0.989 ± 0.016
31 | GAACTTGGCG | 1.01 ± 0.041
32 | TGGGGTTGGC | 1.17 ± 0.34
33 | TCCGGGATAT | 2.23 ± 0.98
34 | CTTCGGGGGT | 1.02 ± 0.019
35 | CGTCTCGAAC | 1 ± 0.014
36 | AGGCCGGCAA | 1.02 ± 0.045
37 | GTTCCCGGGA | 1.028 ± 0.0024
38 | ACAGGGGGGT | 1.17 ± 0.24
39 | CGGCGGTCGG | 0.9808 ± 0.0076
40 | CTGGGGAGAG | 1.01 ± 0.026
41 | CGTAGGTATG | 0.983 ± 0.023
42 | TAGAATAGGT | 0.978 ± 0.011
43 | TGGAGAAGGC | 0.977 ± 0.12
44 | TCCAGCTGA | 2.688 ± 0.015
45 | ATTGCATTTT | 1.28 ± 0.43
46 | TGTTTGCTGT | 1.03 ± 0.074
47 | TAGTTTTTCA | 1.01 ± 0.039
48 | CCTAGGGAGC | 1.07 ± 0.1
49 | TGGCCGGGGG | 1 ± 0.02
50 | TGCATTGCTG | 1.01 ± 0.038

Row | Sequence | switch fluorescence ratio
51 | CATAGGGGCC | 0.9643 ± 0.0074
52 | TTGATGATAT | 0.986 ± 0.019
53 | AATAGGGTTT | 0.967 ± 0.011
54 | TTCAGGGTAC | 0.987 ± 0.039
55 | GGTGGAGTTT | 0.987 ± 0.015
56 | TAGTTGGCAG | 0.9773 ± 0.0054
57 | GTTTCTGTGT | 0.956 ± 0.012
58 | GATGGGAGTT | 1.01 ± 0.014
59 | GGTATCTAGT | 1.02 ± 0.032
60 | GAGGGATTGT | 1 ± 0.021
61 | ACTAATCGAA | 1.05 ± 0.013
62 | GGGGGTCGTT | 1.02 ± 0.051
63 | CAGTTTAGTT | 0.987 ± 0.072
64 | TCTAGATAAA | 1.04 ± 0.052
65 | TGAGTGGGG | 0.975 ± 0.05
66 | ATTGGCAATA | 2.36 ± 1.9
67 | ACTTAGTTAA | 1.02 ± 0.015
68 | CTGGTTATCG | 0.9998 ± 0.0032
69 | TCGTGGCGAG | 1.01 ± 0.028
70 | CGGGGGGGAT | 1.02 ± 0.026
71 | TTCAGATGAA | 0.9987 ± 0.0015
72 | TTTGTGGGTG | 1.01 ± 0.019
73 | ATTAAGTGTA | 0.98 ± 0.019
74 | CGGTAGGCTT | 0.996 ± 0.037
75 | CCAGCGAATG | 1.05 ± 0.028

Row | Sequence | switch fluorescence ratio
76 | GGGAACGTTA | 1.05 ± 0.035
77 | CGCTGAGTAT | 0.995 ± 0.021
78 | ACGAAAATTA | 1.12 ± 0.14
79 | AATATGTGTT | 1.02 ± 0.031
80 | TAAAGGTCGT | 0.97444 ± 0.00071
81 | CGGCGGATTC | 1.03 ± 0.019
82 | CTATAGGGGG | 1.007 ± 0.01
83 | CGGTTATCTA | 1.01 ± 0.054
84 | GAGTTCCCGG | 1 ± 0.011
85 | GAAGATTGAT | 0.96 ± 0.022
86 | AAAGAGACAG | 0.993 ± 0.0046
87 | TTTGAAAAGT | 1.022 ± 0.0028
88 | GTTATACGGG | 1.01 ± 0.024
89 | AGATGAATTC | 0.982 ± 0.036
90 | AATTAGAGGG | 0.984 ± 0.046
91 | CGGCTGGGGC | 1.02 ± 0.015
92 | TCCGGGAAGC | 1.24 ± 0.035
93 | CAGAACAAAA | 1.03 ± 0.035
94 | TCCATCAGCT | 1.1 ± 0.025
95 | GGGTATAGCC | 0.9807 ± 0.0066
96 | ATGGTTAACT | 1.03 ± 0.016
97 | TAAAGAGATG | 1.011 ± 0.0072
98 | TAATTCGCGA | 1.15 ± 0.034
99 | GGGAAGCTTA | 1.008 ± 0.0042
100 | GGGTACTGGT | 1 ± 0.026

From the supplement of paper PMC10126150
